From patent publication US10874712B2, “Methods, compounds and compositions for modulating blood brain barrier integrity and re-myelination” (University Health Network, priority 2015, dated 2020)

Tests used:
[1] = tested on: optic nerves of adult mice; experiment: Optic nerve crush and regeneration model (GAP43 staining); format: in vivo, mouse; details: 1 μg/ml intraocularly at 3 and 10 days after injury; day 21; vs control proteins
Description: Optic nerve crush experiments were performed on animals and recovery assessed by staining for axonal fibres. The optic nerves of adult mice were crushed using fine self-closing forceps. sRGMc (1 μg/ml) or control solution was injected intraocularly at 3 and 10 days after injury. Animals were sacrificed at day 21 and optic nerves were dissected and fixed in 4% PFA. The optic nerves were sectioned longitudinally at 14 microns and stained with GAP43 antibody to stain newly regenerating axons.

[2] = tested on: mice with passively induced EAE; experiment: Adoptive transfer EAE, infiltration of CellVue-labelled cells into spinal cord; format: in vivo, mouse; details: treated every 3 days; sacrificed day 8 after transfer; vs PBS
Description: Briefly, donor animals were immunized with 100 ug MOG(35-55) and sacrificed at day 10. Splenocytes were harvested and re-stimulated for 3 days with 33 ug/mL MOG(35-55) in the presence of 20 ng/ml rmIL-23. Cells were then labelled with CellVue Maroon and injected into recipient animals treated with RGMc or vehicle as well as PTx on day 0 and day 2. Recipient animals were treated every 3 days and sacrificed on day 8 and spinal cords sectioned for immunofluorescence staining.
Having shown that RGMc levels regulate the extravasation of molecules through the BBB, its role on cellular infiltration was evaluated. To do so, adaptive transfer using spleenocyte cells from MOG treated animals was performed. After collection of splenocyte cells were re-stimulated for 3 days with MOG, stained with Cellvue Maroon and injected into recipient mice treated with pertussis toxin. Following injection, animals received either PBS (Control) or RGMc every 3 days. Eight days after transfer animals were sacrificed and cellular infiltration was monitored using Cellvue-reporter. […] Thus, treatment with RGMc prevented T cell infiltration towards the CNS.

[3] = tested on: mouse cerebellar organotypic cultures; experiment: Remyelination in lysolecithin-demyelinated cerebellar organotypic cultures (MBP staining); format: cell-based; details: sRGMc 500 ng/ml for 14 days after lysolecithin
Description: To assess the ability of sRGMc to function as a remyelinating agent, its function in in vitro cerebellar explant cultures was investigated. Briefly, cultures were demyelinated using lysolecithin, a detergent, and then cultured in the presence of sRGMc for 14 days.
Myelination-demyelination-remyelination studies were performed in mouse cerebellar organotypic cultures. The cerebella of postnatal 6 day old pups were dissected and sectioned at 400 μm thickness using vibratome. Cerebellar sections were then plated on insert plates (Corning, Wilkes Barre, Pa.) and allowed to attach. Media was replaced every 2-3 days and cultures were maintained for 7 days. To induce demyelination, 0.5 mg/ml lysolecithin (1′-monoacyl-1-3-glycerylphosphorylcholine; Sigma) was added to the culture medium for 18 hr, after which it was removed and replaced with fresh medium containing sRGMc (500 ng/ml) or control protein and the cultures maintained for 14 more days. Media was replaced every 2-3 days. Demyelination-remyelination was assessed by staining explants with myelin basic protein antibody MBP (Cell Signaling).

[4] = sRGMc level in sera of treated mice by ELISA; format: in vivo, mouse
Description: Blood collected from the saphenous veins of mice induced with EAE at 0, 5, 10, 18 and 30 days in Microvette® CB300 capillary tubes (Starstedt) was spun down at 2000 rcf for 10 min and stored at −80° C. sRGMa and sRGMc in the sera were detected using ELISA kits for sRGMa (MRGMAO, R&D) and sRGMc (MRGMCO, R&D) according to manufacturer's instructions.
To ensure that over-expression of sRGMc was efficient, sera from 3 RGMc-treated mice were collected and compared to 3 vehicle-treated mice at 24 h post-treatment by ELISA. […] The mice were then observed and scored twice daily at 12 h intervals for 18 days. […] Whether intra-peritoneal (i.p) injections of RGMc could overcome the transient effects observed with intravenous administration of this protein was explored. […] Next the levels of RGMc in the sera of sham-treated animals and mice induced with EAE at day 10 as well as in EAE animals (day 10) that were injected with RGMc were analyzed. […] Thus, EAE reduced RGMc levels and over-expression of sRGMc in EAE-induced mice is beneficial in reducing the incidence and the severity as well as delaying the onset of disease.

rats subjected to MCAO = experiment: Middle Cerebral Artery Occlusion (MCAO), Evans Blue BBB integrity; format: in vivo, rat; details: daily tail vein injection of 70 μg, seven days following MCAO
Description: The possibility that RGMc may also restore BBB integrity following stroke was also tested. Middle Cerebral Artery Occlusion (MCAO) was performed in rats, which were treated with a daily tail vein injection of 70 μg of RGMc or PBS (control). Seven days following MCAO, animals received injection of Evans blue to monitor BBB integrity (FIG. 24). To measure BBB integrity, the amount of Evans Blue Dye/g of brain tissue was measured. […] This effect was also quantitated: brains were homogenized and the amount of Evans Blue quantified per gram of wet brain (FIG. 24, B).

B1: sRGMc: truncated form of RGMc with the GPI anchor sequence removed, released as a soluble protein (SEQ ID NOs: 1 and 3) (protein, listed as Homo sapiens)
chain: CKILRCNAEYVSSTLSLRGGGSSGALRGGGGGGRGGGVGSGGLCRALRSYALCTRRTARTCRGDLAFHSAVHGIEDLMIQHNCSRQGPTAPPPPRGPALPGAGSGLPAPDPCDYEGRFSRLHGRPPGFLHCASFGDPHVRSFHHHFHTCRVQGAWPLLDNDFLFVQATSSPMALGANATATRKLTIIFKNMQECIDQKVYQAEVDNLPVAFEDGSINGGDRPGGSSLSIQTANPGNHVEIQAAYIGTTIIIRQTAGQLSFSIKVAEDVAMAFSAEQDLQLCVGGCPPSQRLSRSERNRRGAITIDTARRLCKEGLPVEDAYFHSCVFDVLISGDPNFTVAAQAALEDARAFLPDLEKLH
In the case of B1, the “regeneration of axonal fibres at the site of injury (GAP43)” value [1] is reported as “promote the regeneration of axonal fibres”, the “accumulation of Cellvue+ cells within the spinal cord” value [2] is reported as “did not show accumulation” and the “remyelination (myelin basic protein staining)” value [3] is reported as “promote remyelination”. The “increase in sRGMc levels in sera compared to vehicle-treated animals” value ([4]; 24 h post-treatment, ELISA, 3 mice per group) was 3 fold, the “RGMc levels in sera of EAE mice after RGMc injection” value ([4]; EAE day 10, compared to sham-treated animals) was “restored” and the “stability of sRGMc treatment in serum” value ([4]; ELISA, FIG. 4F) was “stable for 24 h post treatment”. For the same molecule, the “reduction in Evans Blue levels in the brain compared to PBS-treated animals” value (rats subjected to MCAO) was 3 fold and the “Evans Blue extravasation into the CNS, visual inspection” value (rats subjected to MCAO; vs control) was “strongly reduced”.
